We go through 2 molecules from patent publication US20240254203A1.

The test has as its target MERS CoV spike protein (MERS CoV) (UniProt K9N5Q8). Description: cell-based or functional assay.

MERS CoV spike protein (MERS CoV), sequence (K9N5Q8 18-1353): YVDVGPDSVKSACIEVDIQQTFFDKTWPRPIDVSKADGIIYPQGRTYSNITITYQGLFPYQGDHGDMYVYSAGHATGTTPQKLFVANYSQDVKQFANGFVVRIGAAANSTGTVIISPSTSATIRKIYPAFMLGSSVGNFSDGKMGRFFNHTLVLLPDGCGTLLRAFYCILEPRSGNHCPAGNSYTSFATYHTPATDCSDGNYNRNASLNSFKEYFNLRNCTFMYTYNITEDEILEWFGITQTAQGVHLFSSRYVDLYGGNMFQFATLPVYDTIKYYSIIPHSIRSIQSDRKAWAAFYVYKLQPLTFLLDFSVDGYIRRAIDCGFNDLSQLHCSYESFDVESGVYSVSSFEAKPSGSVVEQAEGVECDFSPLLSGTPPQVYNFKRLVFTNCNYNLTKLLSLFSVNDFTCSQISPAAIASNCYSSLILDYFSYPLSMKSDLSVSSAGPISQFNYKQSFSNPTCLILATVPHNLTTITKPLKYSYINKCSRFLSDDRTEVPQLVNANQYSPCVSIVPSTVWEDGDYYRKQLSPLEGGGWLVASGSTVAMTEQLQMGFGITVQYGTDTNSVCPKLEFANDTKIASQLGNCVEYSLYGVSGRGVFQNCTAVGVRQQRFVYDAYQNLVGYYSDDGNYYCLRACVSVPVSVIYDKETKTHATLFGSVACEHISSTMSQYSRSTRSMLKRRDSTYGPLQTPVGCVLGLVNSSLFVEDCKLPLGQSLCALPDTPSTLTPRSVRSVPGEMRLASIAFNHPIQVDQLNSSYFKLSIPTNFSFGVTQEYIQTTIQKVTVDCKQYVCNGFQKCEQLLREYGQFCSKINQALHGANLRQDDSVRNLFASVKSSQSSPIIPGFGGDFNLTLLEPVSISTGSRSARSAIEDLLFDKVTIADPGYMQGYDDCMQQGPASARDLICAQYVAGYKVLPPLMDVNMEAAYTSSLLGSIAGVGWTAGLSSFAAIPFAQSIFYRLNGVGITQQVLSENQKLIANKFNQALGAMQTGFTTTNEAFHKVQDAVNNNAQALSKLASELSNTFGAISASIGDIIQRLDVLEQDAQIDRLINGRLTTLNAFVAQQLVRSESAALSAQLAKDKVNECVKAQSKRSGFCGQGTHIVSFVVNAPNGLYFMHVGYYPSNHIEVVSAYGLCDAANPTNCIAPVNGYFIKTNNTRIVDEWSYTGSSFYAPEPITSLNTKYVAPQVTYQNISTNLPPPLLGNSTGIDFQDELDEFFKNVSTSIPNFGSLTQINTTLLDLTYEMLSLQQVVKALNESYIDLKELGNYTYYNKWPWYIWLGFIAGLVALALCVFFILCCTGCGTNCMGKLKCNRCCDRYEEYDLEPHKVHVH

B1: soluble 7D10 (antibody, V domains shown)
VH: EVQLVESGAEVVKPGASVKMSCKASGYPFTSYNIHWIKQTPGQGLEWIGAIYPGNGDTSYTQKFKVKATLTSDKSSSTAYMQLSSLTSEDSAVYFCARYGNYPSYAMDYWGQGTSVTVSS
VL: DIVMTQSPASLTVSLGQRATISCRASKSVSASGYNYLHWYQQRPGQPPKLLIYLAFNLESGVPARFNGSGSGTDFTLNIHPVEEEDAATYYCQHSRDLPFTFGSGTKLEIK
Consider B1, for which the IC50, neutralization of MERS CoV by the soluble antibody was found to be 1.2 nM.

B2: αNTD:7D10/VM (scFv)
scFv: DIVMTQSPASLTVSLGQRATISCRASKSVSASGYNYLHWYQQRPGQPPKLLIYLAFNLESGVPARFNGSGSGTDFTLNIHPVEEEDAATYYCQHSRDLPFTFGSGTKLEIKGGGSGGGSGGGSEVQLVESGAEVVKPGASVKMSCKASGYPFTSYNIHWIKQTPGQGLEWIGAIYPGNGDTSYTQKFKVKATLTSDKSSSTAYMQLSSLTSEDSAVYFCARYGNYPSYAMDYWGQGTSVTVSSSRGMLDSDLHLSSKAQVFEHPHIQDAASQLPDDESLFFGDTGLSKNPIELVEGWFSSWKSSIASFFFIIGLIIGLFLVLRVGIHLCIKLKHTKKRQIYTDIEMNRLGK
As to B2, the Antivirus vs Pseudovirus IC50 (pM) was 12 pM.
